Source: the Human Domainome abundance scans (Beltran et al. 2025)
± gives the uncertainty stated by the source.

B1: RanBP-type and C3HC4-type zinc finger-containing protein 1, residues 369 to 411; numbered along this chain, Q9BYM8 (parent)
chain: YHCKTPDCKGWCFFEDDVNEFTCPVCFHVNCLLCKAIHEQMNC

Variants of: B1
Assay: abundance fitness (aPCA) (normalised: wild type 0, dead -1); higher = more abundant; growth selection in yeast, the domain comes from the species named
Settings: Homo sapiens
With YHCKTPDCKGWCFFEDDVNEFTCPVCFHVNSLLCKAIHEQMNC [C31S] the abundance fitness was -0.438 ± 0.043. YHCKTPDCKGWCFFEDDVNEFTCPVCFHVNTLLCKAIHEQMNC [C31T] showed an abundance fitness of -0.451 ± 0.057. YHCKTPDCKGWCFFEDDVNEFTCPVCFHVNELLCKAIHEQMNC [C31E] showed an abundance fitness of -0.611 ± 0.057. YHCKTPDCKGWCFFEDDVNEFTCPVCFHVNGLLCKAIHEQMNC [C31G] showed an abundance fitness of -0.655 ± 0.041. YHCKTPDCKGWCFFEDDVNEFTCPVCFHVNNLLCKAIHEQMNC [C31N] gave an abundance fitness of -0.532 ± 0.17. YHCKTPDCKGWCFFEDDVNEFTCPVCFHVNVLLCKAIHEQMNC [C31V] showed an abundance fitness of -0.76 ± 0.064. In the case of YHCKTPDCKGWCFFEDDVNEFTCPVCFHVNMLLCKAIHEQMNC [C31M], the abundance fitness is reported as -0.725 ± 0.098. With YHCKTPDCKGWCFFEDDVNEFTCPVCFHVNKLLCKAIHEQMNC [C31K] the abundance fitness was -0.758 ± 0.12. YHCKTPDCKGWCFFEDDVNEFTCPVCFHVNRLLCKAIHEQMNC [C31R] gave an abundance fitness of -0.558 ± 0.04. YHCKTPDCKGWCFFEDDVNEFTCPVCFHVNLLLCKAIHEQMNC [C31L] showed an abundance fitness of -1.02 ± 0.1. YHCKTPDCKGWCFFEDDVNEFTCPVCFHVNYLLCKAIHEQMNC [C31Y] gave an abundance fitness of -0.154 ± 0.2. Variant YHCKTPDCKGWCFFEDDVNEFTCPVCFHVNALLCKAIHEQMNC [C31A] has an abundance fitness of -0.805 ± 0.056. Work on YHCKTPDCKGWCFFEDDVNEFTCPVCFHVNWLLCKAIHEQMNC [C31W] yielded an abundance fitness of -0.738 ± 0.09. In the case of YHCKTPDCKGWCFFEDDVNEFTCPVCFHVNDLLCKAIHEQMNC [C31D], the abundance fitness is reported as -0.54 ± 0.083. YHCKTPDCKGWCFFEDDVNEFTCPVCFHVNFLLCKAIHEQMNC [C31F] showed an abundance fitness of -0.648 ± 0.35. In the case of YHCKTPDCKGWCFFEDDVNEFTCPVCFHVNQLLCKAIHEQMNC [C31Q], the abundance fitness is reported as -0.521 ± 0.077. Variant YHCKTPDCKGWCFFEDDVNEFTCPVCFHVNHLLCKAIHEQMNC [C31H] has an abundance fitness of -0.469 ± 0.085. For YHCKTPDCKGWCFFEDDVNEFTCPVCFHVNCDLCKAIHEQMNC [L32D], the abundance fitness was -0.531 ± 0.12. With YHCKTPDCKGWCFFEDDVNEFTCPVCFHVNCRLCKAIHEQMNC [L32R] the abundance fitness was 0.026 ± 0.039. YHCKTPDCKGWCFFEDDVNEFTCPVCFHVNCWLCKAIHEQMNC [L32W] showed an abundance fitness of -0.417 ± 0.058. With YHCKTPDCKGWCFFEDDVNEFTCPVCFHVNCFLCKAIHEQMNC [L32F] the abundance fitness was -0.407 ± 0.15. Work on YHCKTPDCKGWCFFEDDVNEFTCPVCFHVNCMLCKAIHEQMNC [L32M] yielded an abundance fitness of -0.264 ± 0.087. Work on YHCKTPDCKGWCFFEDDVNEFTCPVCFHVNCSLCKAIHEQMNC [L32S] yielded an abundance fitness of -0.295 ± 0.055. In the case of YHCKTPDCKGWCFFEDDVNEFTCPVCFHVNCALCKAIHEQMNC [L32A], the abundance fitness is reported as -0.231 ± 0.044. YHCKTPDCKGWCFFEDDVNEFTCPVCFHVNCELCKAIHEQMNC [L32E] gave an abundance fitness of -0.366 ± 0.045. With YHCKTPDCKGWCFFEDDVNEFTCPVCFHVNCYLCKAIHEQMNC [L32Y] the abundance fitness was -0.302 ± 0.062. Variant YHCKTPDCKGWCFFEDDVNEFTCPVCFHVNCCLCKAIHEQMNC [L32C] has an abundance fitness of -0.27 ± 0.12. Work on YHCKTPDCKGWCFFEDDVNEFTCPVCFHVNCGLCKAIHEQMNC [L32G] yielded an abundance fitness of -0.369 ± 0.045. Variant YHCKTPDCKGWCFFEDDVNEFTCPVCFHVNCQLCKAIHEQMNC [L32Q] has an abundance fitness of -0.168 ± 0.065. For YHCKTPDCKGWCFFEDDVNEFTCPVCFHVNCKLCKAIHEQMNC [L32K], the abundance fitness was 0.037 ± 0.051. Variant YHCKTPDCKGWCFFEDDVNEFTCPVCFHVNCNLCKAIHEQMNC [L32N] has an abundance fitness of -0.131 ± 0.14. With YHCKTPDCKGWCFFEDDVNEFTCPVCFHVNCPLCKAIHEQMNC [L32P] the abundance fitness was -0.525 ± 0.063. In the case of YHCKTPDCKGWCFFEDDVNEFTCPVCFHVNCVLCKAIHEQMNC [L32V], the abundance fitness is reported as -0.167 ± 0.051. Variant YHCKTPDCKGWCFFEDDVNEFTCPVCFHVNCTLCKAIHEQMNC [L32T] has an abundance fitness of -0.015 ± 0.05. Work on YHCKTPDCKGWCFFEDDVNEFTCPVCFSVNCLLCKAIHEQMNC [H28S] yielded an abundance fitness of -0.029 ± 0.048. Variant YHCKTPDCKGWCFFEDDVNEFTCPVCFRVNCLLCKAIHEQMNC [H28R] has an abundance fitness of 0.011 ± 0.04. Work on YHCKTPDCKGWCFFEDDVNEFTCPVCFMVNCLLCKAIHEQMNC [H28M] yielded an abundance fitness of -0.065 ± 0.043. YHCKTPDCKGWCFFEDDVNEFTCPVCFTVNCLLCKAIHEQMNC [H28T] showed an abundance fitness of -0.041 ± 0.05. YHCKTPDCKGWCFFEDDVNEFTCPVCFWVNCLLCKAIHEQMNC [H28W] showed an abundance fitness of -0.592 ± 0.085. Variant YHCKTPDCKGWCFFEDDVNEFTCPVCFYVNCLLCKAIHEQMNC [H28Y] has an abundance fitness of -0.489 ± 0.11. For YHCKTPDCKGWCFFEDDVNEFTCPVCFKVNCLLCKAIHEQMNC [H28K], the abundance fitness was 0.131 ± 0.054. With YHCKTPDCKGWCFFEDDVNEFTCPVCFPVNCLLCKAIHEQMNC [H28P] the abundance fitness was -0.912 ± 0.077. In the case of YHCKTPDCKGWCFFEDDVNEFTCPVCFQVNCLLCKAIHEQMNC [H28Q], the abundance fitness is reported as 0.059 ± 0.051. Variant YHCKTPDCKGWCFFEDDVNEFTCPVCFVVNCLLCKAIHEQMNC [H28V] has an abundance fitness of -0.298 ± 0.066. For YHCKTPDCKGWCFFEDDVNEFTCPVCFHVACLLCKAIHEQMNC [N30A], the abundance fitness was -1.3 ± 0.14. For YHCKTPDCKGWCFFEDDVNEFTCPVCFHVLCLLCKAIHEQMNC [N30L], the abundance fitness was -1.22 ± 0.16. With YHCKTPDCKGWCFFEDDVNEFTCPVCFHVVCLLCKAIHEQMNC [N30V] the abundance fitness was -1.04 ± 0.11. For YHCKTPDCKGWCFFEDDVNEFTCPVCFHVWCLLCKAIHEQMNC [N30W], the abundance fitness was -0.855 ± 0.083. With YHCKTPDCKGWCFFEDDVNEFTCPVCFHVHCLLCKAIHEQMNC [N30H] the abundance fitness was -0.42 ± 0.14. Variant YHCKTPDCKGWCFFEDDVNEFTCPVCFHVDCLLCKAIHEQMNC [N30D] has an abundance fitness of -0.79 ± 0.15. Variant YHCKTPDCKGWCFFEDDVNEFTCPVCFHVICLLCKAIHEQMNC [N30I] has an abundance fitness of -0.835 ± 0.29. YHCKTPDCKGWCFFEDDVNEFTCPVCFHVQCLLCKAIHEQMNC [N30Q] gave an abundance fitness of -0.788 ± 0.15. YHCKTPDCKGWCFFEDDVNEFTCPVCFHVCCLLCKAIHEQMNC [N30C] gave an abundance fitness of -0.777 ± 0.12. With YHCKTPDCKGWCFFEDDVNEFTCPVCFHVMCLLCKAIHEQMNC [N30M] the abundance fitness was -1.16 ± 0.12. Work on YHCKTPDCKGWCFFEDDVNEFTCPVCFHVECLLCKAIHEQMNC [N30E] yielded an abundance fitness of -0.891 ± 0.099. In the case of YHCKTPDCKGWCFFEDDVNEFTCPVCFHVSCLLCKAIHEQMNC [N30S], the abundance fitness is reported as -0.797 ± 0.076. Variant YHCKTPDCKGWCFFEDDVNEFTCPVCFHVRCLLCKAIHEQMNC [N30R] has an abundance fitness of -0.8 ± 0.066. For YHCKTPDCKGWCFFEDDVNEFTCPVCFHVGCLLCKAIHEQMNC [N30G], the abundance fitness was -0.811 ± 0.059. Variant YHCKTPDCKGWCFFEDDVNEFTCPVCFHVTCLLCKAIHEQMNC [N30T] has an abundance fitness of -0.57 ± 0.06.
